Assay results reported in patent publication US20170290877A1.
Non-standard residues stand in square brackets, D forms with d. No end group written: not given here.

Target: JNK in primary mouse cortical neurons
Assay: cell-based or functional assay

B1: D-TAT-IB1(s) (peptide)
peptide: [dD][dQ][dS][dR][dP][dV][dQ][dP][dF][dL][dN][dL][dT][dT][dP][dR][dK][dP][dR][dP][dP][dR][dR][dR][dQ][dR][dR][dK][dK][dR]G
What does the source list for B1?
JNK activation in Aβ42-stressed PKR-/- neurons (immunoblot), XG-102 at 10 µM: -35%; JNK activity as ratio pJNK/JNK after 1 mM H2O2 (immunoblot), XG-102 at 10 µM (% of controls): 45; c-Jun phosphorylation in Aβ42-stressed WT neurons (immunoblot), XG-102 at 10 µM: -74%
